Experimental data published in paper PMC9352680, “A comprehensive thermodynamic model for RNA binding by the Saccharomyces cerevisiae Pumilio protein PUF4”.

T1: PUF4 RNA-binding domain (Saccharomyces cerevisiae, UniProt P25339 537-888)
T1 sequence: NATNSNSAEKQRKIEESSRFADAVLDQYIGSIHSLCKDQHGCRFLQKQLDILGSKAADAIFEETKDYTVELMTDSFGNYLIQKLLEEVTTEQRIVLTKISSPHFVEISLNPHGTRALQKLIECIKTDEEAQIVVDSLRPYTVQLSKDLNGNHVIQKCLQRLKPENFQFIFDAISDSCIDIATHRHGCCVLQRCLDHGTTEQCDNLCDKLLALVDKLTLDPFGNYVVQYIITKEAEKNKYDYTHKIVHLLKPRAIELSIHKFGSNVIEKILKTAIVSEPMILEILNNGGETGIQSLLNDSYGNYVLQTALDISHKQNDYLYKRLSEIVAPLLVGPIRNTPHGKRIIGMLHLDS


Molecular target: T1, PUF4 RNA-binding domain
Assay: Mg; RNA-MaP; 20 mM Na-HEPES pH 7.4, 30 mM KOAc, 0.75 mM MgCl2, 0.1% Tween-20, 5% glycerol, 0.1 mg/mL BSA, 2 mM DTT; 25 C; 0.0125-409.6 nM protein
Conditions: tags: N-His6-TEV cleaved; C-SNAP kept, Cy3B-labelled; label: tethered on chip by stalled RNA polymerase

Row | Binder | Kd [nM]
1 | Ie_S2_P3E.2_K3.1_C3.2_H3.1_[+2CC]_A3.1_F3.1_T3.2 (ssRNA) RNA: UUUGAUUAAUAUGAUAUCGUUCUUUCUCUUGCCUAUAUAUAUUCUUUCUCGAUAUCAUAUUAAUCUUU | 102
2 | Ie_S2_P3E.2_K3.1_C3.2_H3.1_[+2TT]_A3.1_F3.1_T3.2 (ssRNA) RNA: UUUGAUUAAUAUGAUAUCGUUCUUUCUCUUGUUUAUAUAUAUUCUUUCUCGAUAUCAUAUUAAUCUUU | 14.6
3 | Ie_S2_P3E.2_K3.1_C3.2_H3.1_[+3CC]_A3.1_F3.1_T3.2 (ssRNA) RNA: UUUGAUUAAUAUGAUAUCGUUCUUUCUCUUGUCCAUAUAUAUUCUUUCUCGAUAUCAUAUUAAUCUUU | 34
4 | Ie_S2_P3E.2_K3.1_C3.2_H3.1_A3.1_[+5CT]_F3.1_T3.2 (ssRNA) RNA: UUUGAUUAAUAUGAUAUCGUUCUUUCUCUUGUAUCUAUAUAUUCUUUCUCGAUAUCAUAUUAAUCUUU | 3.75
5 | Ie_S2_P3E.2_K3.1_C3.2_H3.1_[+2CT]_A3.1_F3.1_T3.2 (ssRNA) RNA: UUUGAUUAAUAUGAUAUCGUUCUUUCUCUUGCUUAUAUAUAUUCUUUCUCGAUAUCAUAUUAAUCUUU | 93
6 | Ie_S2_P3E.2_K3.1_C3.2_H3.1_[+3TC]_A3.1_F3.1_T3.2 (ssRNA) RNA: UUUGAUUAAUAUGAUAUCGUUCUUUCUCUUGUUCAUAUAUAUUCUUUCUCGAUAUCAUAUUAAUCUUU | 12.9
7 | Ie_S2_P3E.2_K3.1_C3.2_H3.1_[+4CC]_A3.1_F3.1_T3.2 (ssRNA) RNA: UUUGAUUAAUAUGAUAUCGUUCUUUCUCUUGUACCUAUAUAUUCUUUCUCGAUAUCAUAUUAAUCUUU | 2.33
8 | Ie_S2_P3E.2_K3.1_C3.2_H3.1_[+3CT]_A3.1_F3.1_T3.2 (ssRNA) RNA: UUUGAUUAAUAUGAUAUCGUUCUUUCUCUUGUCUAUAUAUAUUCUUUCUCGAUAUCAUAUUAAUCUUU | 28.3
9 | Ie_S2_P3E.2_K3.1_C3.2_H3.1_[+1TCTCT]_A3.1_F3.1_T3.2 (ssRNA) RNA: UUUGAUUAAUAUGAUAUCGUUCUUUCUCUUUCUCUGUAUAUAUAUUCUUUCUCGAUAUCAUAUUAAUCUUU | 1.44
10 | Ie_S2_P3E.2_K3.1_C3.2_H3.1_[+2TCTCT]_A3.1_F3.1_T3.2 (ssRNA) RNA: UUUGAUUAAUAUGAUAUCGUUCUUUCUCUUGUCUCUUAUAUAUAUUCUUUCUCGAUAUCAUAUUAAUCUUU | 21.5
11 | Ie_S2_P3E.2_K3.1_C3.2_H3.1_[+3CTCTC]_A3.1_F3.1_T3.2 (ssRNA) RNA: UUUGAUUAAUAUGAUAUCGUUCUUUCUCUUGUCUCUCAUAUAUAUUCUUUCUCGAUAUCAUAUUAAUCUUU | 76.4
12 | Ie_S2_P3E.2_K3.1_C3.2_H3.1_[+1TTCCT]_A3.1_F3.1_T3.2 (ssRNA) RNA: UUUGAUUAAUAUGAUAUCGUUCUUUCUCUUUUCCUGUAUAUAUAUUCUUUCUCGAUAUCAUAUUAAUCUUU | 1.16
13 | Ie_S2_P3E.2_K3.1_C3.2_H3.1_[+1CCCTT]_A3.1_F3.1_T3.2 (ssRNA) RNA: UUUGAUUAAUAUGAUAUCGUUCUUUCUCUUCCCUUGUAUAUAUAUUCUUUCUCGAUAUCAUAUUAAUCUUU | 1.15
14 | Ie_S2_P3E.2_K3.1_C3.2_H3.1_[+2TTCCT]_A3.1_F3.1_T3.2 (ssRNA) RNA: UUUGAUUAAUAUGAUAUCGUUCUUUCUCUUGUUCCUUAUAUAUAUUCUUUCUCGAUAUCAUAUUAAUCUUU | 16.3
15 | Ie_S2_P3E.2_K3.1_C3.2_H3.1_[+3CCCTT]_A3.1_F3.1_T3.2 (ssRNA) RNA: UUUGAUUAAUAUGAUAUCGUUCUUUCUCUUGUCCCUUAUAUAUAUUCUUUCUCGAUAUCAUAUUAAUCUUU | 35.7
16 | Ie_S2_P3E.2_K3.1_C3.2_H3.1_[+1CCTCT]_A3.1_F3.1_T3.2 (ssRNA) RNA: UUUGAUUAAUAUGAUAUCGUUCUUUCUCUUCCUCUGUAUAUAUAUUCUUUCUCGAUAUCAUAUUAAUCUUU | 1.11
17 | Ie_S2_P3E.2_K3.1_C3.2_H3.1_[+2CCTCT]_A3.1_F3.1_T3.2 (ssRNA) RNA: UUUGAUUAAUAUGAUAUCGUUCUUUCUCUUGCCUCUUAUAUAUAUUCUUUCUCGAUAUCAUAUUAAUCUUU | 112
18 | Ie_S2_P3E.2_K3.1_C3.2_H3.1_[+2CTCTC]_A3.1_F3.1_T3.2 (ssRNA) RNA: UUUGAUUAAUAUGAUAUCGUUCUUUCUCUUGCUCUCUAUAUAUAUUCUUUCUCGAUAUCAUAUUAAUCUUU | 61.8
19 | Ie_S2_P3E.2_K3.1_C3.2_H3.1_[+3TTCCT]_A3.1_F3.1_T3.2 (ssRNA) RNA: UUUGAUUAAUAUGAUAUCGUUCUUUCUCUUGUUUCCUAUAUAUAUUCUUUCUCGAUAUCAUAUUAAUCUUU | 19.1
20 | Ic_S2_P3E.1_K3.1_C3.1_H3.1_A3.1_[A6C]_F3.1_[T7C]_T3.1 (ssRNA) RNA: UUUGAUUAAUAUGAUAUCGUUCUUUCUUGUAUCCAUUCUUUCUCGAUAUCAUAUUAAUCUUU | 148
21 | Ic_S2_P3E.1_K3.1_C3.1_H3.1_A3.1_[A6T]_F3.1_[T7C]_T3.1 (ssRNA) RNA: UUUGAUUAAUAUGAUAUCGUUCUUUCUUGUAUUCAUUCUUUCUCGAUAUCAUAUUAAUCUUU | 114
22 | Ic_S2_P3E.1_K3.1_C3.1_H3.1_A3.1_[A6T]_F3.1_[T7A]_T3.1 (ssRNA) RNA: UUUGAUUAAUAUGAUAUCGUUCUUUCUUGUAUUAAUUCUUUCUCGAUAUCAUAUUAAUCUUU | 56.9

Row | Binder | Kd [nM]
23 | Ic_S2_P3E.1_K3.1_C3.1_H3.1_A3.1_[A6C]_F3.1_[T7A]_T3.1 (ssRNA) RNA: UUUGAUUAAUAUGAUAUCGUUCUUUCUUGUAUCAAUUCUUUCUCGAUAUCAUAUUAAUCUUU | 107
24 | Ie_S2_P3E.2_K3.1_C3.2_H3.1_[+1CCTC]_A3.1_F3.1_T3.2 (ssRNA) RNA: UUUGAUUAAUAUGAUAUCGUUCUUUCUCUUCCUCGUAUAUAUAUUCUUUCUCGAUAUCAUAUUAAUCUUU | 52.3
25 | Ie_S2_P3E.2_K3.1_C3.2_H3.1_[+2CCCT]_A3.1_F3.1_T3.2 (ssRNA) RNA: UUUGAUUAAUAUGAUAUCGUUCUUUCUCUUGCCCUUAUAUAUAUUCUUUCUCGAUAUCAUAUUAAUCUUU | 67.5
26 | Ie_S2_P3E.2_K3.1_C3.2_H3.1_[+2CCTC]_A3.1_F3.1_T3.2 (ssRNA) RNA: UUUGAUUAAUAUGAUAUCGUUCUUUCUCUUGCCUCUAUAUAUAUUCUUUCUCGAUAUCAUAUUAAUCUUU | 162
27 | Ie_S2_P3E.2_K3.1_C3.2_H3.1_[+2CTCT]_A3.1_F3.1_T3.2 (ssRNA) RNA: UUUGAUUAAUAUGAUAUCGUUCUUUCUCUUGCUCUUAUAUAUAUUCUUUCUCGAUAUCAUAUUAAUCUUU | 62.1
28 | Ie_S2_P3E.2_K3.1_C3.2_H3.1_[+3CCTC]_A3.1_F3.1_T3.2 (ssRNA) RNA: UUUGAUUAAUAUGAUAUCGUUCUUUCUCUUGUCCUCAUAUAUAUUCUUUCUCGAUAUCAUAUUAAUCUUU | 62.8
29 | Ie_S2_P3E.2_K3.1_C3.2_H3.1_[+1CCCT]_A3.1_F3.1_T3.2 (ssRNA) RNA: UUUGAUUAAUAUGAUAUCGUUCUUUCUCUUCCCUGUAUAUAUAUUCUUUCUCGAUAUCAUAUUAAUCUUU | 0.515
30 | Ie_S2_P3E.2_K3.1_C3.2_H3.1_[+3CCCT]_A3.1_F3.1_T3.2 (ssRNA) RNA: UUUGAUUAAUAUGAUAUCGUUCUUUCUCUUGUCCCUAUAUAUAUUCUUUCUCGAUAUCAUAUUAAUCUUU | 30.4
31 | Ie_S2_P3E.2_K3.1_C3.2_H3.1_[+3CTCT]_A3.1_F3.1_T3.2 (ssRNA) RNA: UUUGAUUAAUAUGAUAUCGUUCUUUCUCUUGUCUCUAUAUAUAUUCUUUCUCGAUAUCAUAUUAAUCUUU | 21.2
32 | Ie_S2_P3E.2_K3.1_C3.2_H3.1_[+2CTC]_A3.1_F3.1_T3.2 (ssRNA) RNA: UUUGAUUAAUAUGAUAUCGUUCUUUCUCUUGCUCUAUAUAUAUUCUUUCUCGAUAUCAUAUUAAUCUUU | 63.2
33 | Ie_S2_P3E.2_K3.1_C3.2_H3.1_[+3TTC]_A3.1_F3.1_T3.2 (ssRNA) RNA: UUUGAUUAAUAUGAUAUCGUUCUUUCUCUUGUUUCAUAUAUAUUCUUUCUCGAUAUCAUAUUAAUCUUU | 8.9
34 | Ie_S2_P3E.2_K3.1_C3.2_H3.1_[+2TTT]_A3.1_F3.1_T3.2 (ssRNA) RNA: UUUGAUUAAUAUGAUAUCGUUCUUUCUCUUGUUUUAUAUAUAUUCUUUCUCGAUAUCAUAUUAAUCUUU | 10.7
35 | Ie_S2_P3E.2_K3.1_C3.2_H3.1_[+3CTC]_A3.1_F3.1_T3.2 (ssRNA) RNA: UUUGAUUAAUAUGAUAUCGUUCUUUCUCUUGUCUCAUAUAUAUUCUUUCUCGAUAUCAUAUUAAUCUUU | 17.3
36 | Ie_S2_P3E.2_K3.1_C3.2_H3.1_[+2TTC]_A3.1_F3.1_T3.2 (ssRNA) RNA: UUUGAUUAAUAUGAUAUCGUUCUUUCUCUUGUUCUAUAUAUAUUCUUUCUCGAUAUCAUAUUAAUCUUU | 6.23
37 | Ie_S2_P3E.2_K3.1_C3.2_H3.1_[+2TCC]_A3.1_F3.1_T3.2 (ssRNA) RNA: UUUGAUUAAUAUGAUAUCGUUCUUUCUCUUGUCCUAUAUAUAUUCUUUCUCGAUAUCAUAUUAAUCUUU | 9.73
38 | Ie_S2_P3E.2_K3.1_C3.2_H3.1_[+3CCC]_A3.1_F3.1_T3.2 (ssRNA) RNA: UUUGAUUAAUAUGAUAUCGUUCUUUCUCUUGUCCCAUAUAUAUUCUUUCUCGAUAUCAUAUUAAUCUUU | 13.5
39 | Ie_S2_P3E.2_K3.1_C3.2_H3.1_[+2CTT]_A3.1_F3.1_T3.2 (ssRNA) RNA: UUUGAUUAAUAUGAUAUCGUUCUUUCUCUUGCUUUAUAUAUAUUCUUUCUCGAUAUCAUAUUAAUCUUU | 65.6
40 | Ie_S2_P3E.2_K3.1_C3.2_H3.1_[+2TCT]_A3.1_F3.1_T3.2 (ssRNA) RNA: UUUGAUUAAUAUGAUAUCGUUCUUUCUCUUGUCUUAUAUAUAUUCUUUCUCGAUAUCAUAUUAAUCUUU | 15.5
41 | Ie_S2_P3E.2_K3.1_C3.2_H3.1_[+2T]_A3.1_F3.1_T3.2 (ssRNA) RNA: UUUGAUUAAUAUGAUAUCGUUCUUUCUCUUGUUAUAUAUAUUCUUUCUCGAUAUCAUAUUAAUCUUU | 8.08
42 | Ie_S2_P3E.2_K3.1_C3.2_H3.1_A3.1_[+5T]_F3.1_T3.2 (ssRNA) RNA: UUUGAUUAAUAUGAUAUCGUUCUUUCUCUUGUAUUAUAUAUUCUUUCUCGAUAUCAUAUUAAUCUUU | 1.52
43 | Ie_S2_P3E.2_K3.1_C3.2_H3.1_[+4C]_A3.1_F3.1_T3.2 (ssRNA) RNA: UUUGAUUAAUAUGAUAUCGUUCUUUCUCUUGUACUAUAUAUUCUUUCUCGAUAUCAUAUUAAUCUUU | 0.5
